Values of other authors as cited in publication PMC7564214.

Biological target: LC3B (Homo sapiens) (UniProt Q9GZQ8)

- Kd: 100 µM
Substance: TRIM5α (from UniProt Q9C035)
